These results are taken from the RNAGym collection of RNA variant scans (doi:10.1093/molbev/msab373).

B1: Azoarcus group I ribozyme (parent)
chain: GUGCCUUGCGCCGGGAAACCACGCAAGGGAUGGUGUCAAAUUCGGCGAAACCUAAGCGCCCGCCCGGGCGUAUGGCAACGCCGAGCCAAGCUUCGGCGCCUGCGCCGAUGAAGGUGUAGAGACUAGACGGCACCCACCUAAGGCAAACGCUAUGGUGAAGGCAUAGUCCAGGGAGUGGCGAAAGUCACACAAACCGG

The variants in the data set derive from B1. As to the kind of experiment: reverse-splicing fitness (ratio to wild type); higher = more active; in vitro selection; Mg2+ level not given. Put shortly:
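An in vitro group I ribozyme library with randomized positions was T7-transcribed and gel-purified. In triplicate, 10 pmol RNA in EPPS pH 7.5 was reacted with 50 pmoles of a 30-nt RNA substrate for 1 h at 37 °C across several added MgCl2 levels (1–48 mM), then stopped with EDTA. Products were reverse transcribed from a substrate-complementary primer, PCR-amplified and sequenced (HiSeq 4000). Fitness is a variant's read proportion after selection over that before, normalised to wild type.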
As to GUGCCUUGCGCCGGGAAACCACGCAAGGGAUGGUGUCAAAUUCGGCGAAACCUAAGCGCCCGCCCGGGCGUAUGGCAACGCGGAGCCAAGCUUCGGCGCCUGCGCCGAUGUAGGUGUAGUGACUAGACGGCACCCACCUAAGGCGAACGAUAUGGUGAAGGCAUAGUCUAGGGAGUGGCGAAAGUCACACAAACCGG [C82G A111U A120U A145G C150A C169U], the reverse-splicing fitness came to 0.00464.
Consider GUGCCUUGCGCCGGGAAACCACGCAAGGGAUGGUGUCAAAUUCGGCGAAACCUAAGCGCCCGCCCGGGCGUAUGGCAACGCAGAGCCAAGCUUCGGCGCCUGCGCCGAUGAAGGUGUAGGGACUAGACGGCACCCACCUAAGGCGAACGUUAUGGUGAAGGCAUAGUCGAGGGAGGGGCGAAAGUCACACAAACCGG [C82A A120G A145G C150U C169G U176G], for which the reverse-splicing fitness came out at 0.0046.
In the case of GUGCCUUGCGCCGGGAAACCACGCAAGGGAUGGUGUCAAAUUCGGCGAAACCUAAGCGCCCGCCCGGGCGUAUGGCAACGCGGAGCCAAGCUUCGGCGCCUGCGCCGAUGUAGGUGUAGAGACUAGACGGCACCCACCUAAGGCAAACGAUAUGGUGAAGGCAUAGUCGAGGGAGUGGCGAAAGUCACACAAACCGG [C82G A111U C150A C169G] it was 0.00899.
For the variant GUGCCUUGCGCCGGGAAACCACGCAAGGGAUGGUGUCAAAUUCGGCGAAACCUAAGCGCCCGCCCGGGCGUAUGGCAACGCAGAGCCAAGCUUCGGCGCCUGCGCCGAUGGAGGUGUAGUGACUAGACGGCACCCACCUAAGGCCAACGCUAUGGUGAAGGCAUAGUCGAGGGAGCGGCGAAAGUCACACAAACCGG [C82A A111G A120U A145C C169G U176C], the reverse-splicing fitness was 0.00189.
For the variant GUGCCUUGCGCCGGGAAACCACGCAAGGGAUGGUGUCAAAUUCGGCGAAACCUAAGCGCCCGCCCGGGCGUAUGGCAACGCCGAGCCAAGCUUCGGCGCCUGCGCCGAUGCAGGUGUAGUGACUAGACGGCACCCACCUAAGGCAAACGAUAUGGUGAAGGCAUAGUCAAGGGAGGGGCGAAAGUCACACAAACCGG [A111C A120U C150A C169A U176G], the reverse-splicing fitness is 0.00239.
In the case of GUGCCUUGCGCCGGGAAACCACGCAAGGGAUGGUGUCAAAUUCGGCGAAACCUAAGCGCCCGCCCGGGCGUAUGGCAACGCUGAGCCAAGCUUCGGCGCCUGCGCCGAUGAAGGUGUAGGGACUAGACGGCACCCACCUAAGGCAAACGAUAUGGUGAAGGCAUAGUCGAGGGAGGGGCGAAAGUCACACAAACCGG [C82U A120G C150A C169G U176G] it was 0.00456; in that of GUGCCUUGCGCCGGGAAACCACGCAAGGGAUGGUGUCAAAUUCGGCGAAACCUAAGCGCCCGCCCGGGCGUAUGGCAACGCCGAGCCAAGCUUCGGCGCCUGCGCCGAUGAAGGUGUAGGGACUAGACGGCACCCACCUAAGGCCAACGUUAUGGUGAAGGCAUAGUCUAGGGAGAGGCGAAAGUCACACAAACCGG [A120G A145C C150U C169U U176A], 0.0904.
In the case of GUGCCUUGCGCCGGGAAACCACGCAAGGGAUGGUGUCAAAUUCGGCGAAACCUAAGCGCCCGCCCGGGCGUAUGGCAACGCAGAGCCAAGCUUCGGCGCCUGCGCCGAUGAAGGUGUAGCGACUAGACGGCACCCACCUAAGGCAAACGAUAUGGUGAAGGCAUAGUCUAGGGAGUGGCGAAAGUCACACAAACCGG [C82A A120C C150A C169U] it was 0.0147.
As for GUGCCUUGCGCCGGGAAACCACGCAAGGGAUGGUGUCAAAUUCGGCGAAACCUAAGCGCCCGCCCGGGCGUAUGGCAACGCCGAGCCAAGCUUCGGCGCCUGCGCCGAUGGAGGUGUAGUGACUAGACGGCACCCACCUAAGGCGAACGUUAUGGUGAAGGCAUAGUCUAGGGAGGGGCGAAAGUCACACAAACCGG [A111G A120U A145G C150U C169U U176G], the figure is 0.00334; as for GUGCCUUGCGCCGGGAAACCACGCAAGGGAUGGUGUCAAAUUCGGCGAAACCUAAGCGCCCGCCCGGGCGUAUGGCAACGCUGAGCCAAGCUUCGGCGCCUGCGCCGAUGCAGGUGUAGGGACUAGACGGCACCCACCUAAGGCCAACGAUAUGGUGAAGGCAUAGUCUAGGGAGGGGCGAAAGUCACACAAACCGG [C82U A111C A120G A145C C150A C169U U176G], 0.00441.
As for GUGCCUUGCGCCGGGAAACCACGCAAGGGAUGGUGUCAAAUUCGGCGAAACCUAAGCGCCCGCCCGGGCGUAUGGCAACGCCGAGCCAAGCUUCGGCGCCUGCGCCGAUGAAGGUGUAGAGACUAGACGGCACCCACCUAAGGCAAACGAUAUGGUGAAGGCAUAGUCAAGGGAGGGGCGAAAGUCACACAAACCGG [C150A C169A U176G], the reverse-splicing fitness amounted to 0.00665.
As for GUGCCUUGCGCCGGGAAACCACGCAAGGGAUGGUGUCAAAUUCGGCGAAACCUAAGCGCCCGCCCGGGCGUAUGGCAACGCUGAGCCAAGCUUCGGCGCCUGCGCCGAUGGAGGUGUAGGGACUAGACGGCACCCACCUAAGGCGAACGUUAUGGUGAAGGCAUAGUCUAGGGAGGGGCGAAAGUCACACAAACCGG [C82U A111G A120G A145G C150U C169U U176G], the figure is 0.00525; as for GUGCCUUGCGCCGGGAAACCACGCAAGGGAUGGUGUCAAAUUCGGCGAAACCUAAGCGCCCGCCCGGGCGUAUGGCAACGCGGAGCCAAGCUUCGGCGCCUGCGCCGAUGUAGGUGUAGUGACUAGACGGCACCCACCUAAGGCCAACGCUAUGGUGAAGGCAUAGUCGAGGGAGAGGCGAAAGUCACACAAACCGG [C82G A111U A120U A145C C169G U176A], 0.00225; as for GUGCCUUGCGCCGGGAAACCACGCAAGGGAUGGUGUCAAAUUCGGCGAAACCUAAGCGCCCGCCCGGGCGUAUGGCAACGCGGAGCCAAGCUUCGGCGCCUGCGCCGAUGUAGGUGUAGUGACUAGACGGCACCCACCUAAGGCAAACGCUAUGGUGAAGGCAUAGUCUAGGGAGCGGCGAAAGUCACACAAACCGG [C82G A111U A120U C169U U176C], 0.00393.
As for GUGCCUUGCGCCGGGAAACCACGCAAGGGAUGGUGUCAAAUUCGGCGAAACCUAAGCGCCCGCCCGGGCGUAUGGCAACGCAGAGCCAAGCUUCGGCGCCUGCGCCGAUGCAGGUGUAGCGACUAGACGGCACCCACCUAAGGCGAACGAUAUGGUGAAGGCAUAGUCAAGGGAGAGGCGAAAGUCACACAAACCGG [C82A A111C A120C A145G C150A C169A U176A], the figure is 0.0209.
